Results published in publication PMC10836720.

Biological target: A. baumannii 118362 Family 2A encapsulin shell protein (J517_0527) (Acinetobacter baumannii 118362)
Test: cryo-EM structure

Substance: A. baumannii 118362 Family 2A encapsulin shell protein (J517_0527) (natural protein)
- stoichiometry N: 60 subunits
